# T1: mouse PAI-1 (mouse, UniProt P22777 24-401)
# T1 sequence: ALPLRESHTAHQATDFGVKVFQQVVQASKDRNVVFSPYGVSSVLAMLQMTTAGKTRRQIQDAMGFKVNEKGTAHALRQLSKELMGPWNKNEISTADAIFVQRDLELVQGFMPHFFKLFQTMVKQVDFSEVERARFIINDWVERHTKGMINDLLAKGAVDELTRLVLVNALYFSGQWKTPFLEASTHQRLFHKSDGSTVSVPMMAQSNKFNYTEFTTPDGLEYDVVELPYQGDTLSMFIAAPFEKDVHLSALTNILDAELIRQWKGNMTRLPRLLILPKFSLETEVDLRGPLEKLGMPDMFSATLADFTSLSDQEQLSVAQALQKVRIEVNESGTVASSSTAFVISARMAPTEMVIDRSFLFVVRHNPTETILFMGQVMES
# T2: rat PAI-1 (rat, UniProt P20961 24-402)
# T2 sequence: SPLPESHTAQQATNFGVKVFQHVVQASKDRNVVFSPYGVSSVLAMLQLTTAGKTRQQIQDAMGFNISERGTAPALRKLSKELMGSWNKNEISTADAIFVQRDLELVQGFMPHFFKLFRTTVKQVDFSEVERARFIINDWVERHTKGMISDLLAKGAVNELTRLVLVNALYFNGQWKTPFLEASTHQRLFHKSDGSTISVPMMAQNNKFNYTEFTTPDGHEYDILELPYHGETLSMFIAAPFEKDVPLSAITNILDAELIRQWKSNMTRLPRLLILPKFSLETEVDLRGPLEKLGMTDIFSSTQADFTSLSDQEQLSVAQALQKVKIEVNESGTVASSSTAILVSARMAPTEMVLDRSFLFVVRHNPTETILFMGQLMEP
# Assays:
# Test in all cases: cell-based or functional assay
# cynomolgus PAI-1 = cynomolgus PAI-1 (cynomolgus, UniProt P05121 24-402 (human entry), limits assumed)
# [1] = molecular target: active human PAI-1, recombinant, wild-type, non-glycosylated (E. coli) (human, UniProt P05121 24-402)
# mouse PAI-1 = molecular target: T1, mouse PAI-1
# rat PAI-1 = molecular target: T2, rat PAI-1
Binder,Chromogenic (IC50 in nM) cyno (cynomolgus PAI-1) [nM],Chromogenic IC50 ratio cyno/human (cynomolgus PAI-1) [fold],Chromogenic (IC50 in nM) human [1] [nM],Chromogenic (IC50 in nM) mouse (mouse PAI-1) [nM],Chromogenic IC50 ratio mouse/human (mouse PAI-1) [fold],Chromogenic (IC50 in nM) rat (rat PAI-1) [nM],Chromogenic IC50 ratio rat/human (rat PAI-1) [fold]
Antibody 11 scFv (scFv) QVQLQQSGAEVKKPGSSVKVSCKASGGTFSSYAISWMRQAPGQGLEWMGGIIPIFGTANYAQKFQGRVTITADESTSTAYMELSGLRSEDTAVYYCAREKRQWLEGHFDYWGRGTPVTVSSDIQMIQSPSFLSASTGDRVTITCQASEGIYHELAWYQQKPGKAPKLLIYRASSLASGAPSRFSGSGSGTDFTLTISSLQPDDFATYYCQQYSNYPLTFGGGTKLEIK,43.8,0.4,102,33.6,0.3,59.5,0.6
Antibody 17 scFv (scFv) QVQLQQSGAEVKKPGSSVKVSCKASGGTFSSYAISWVRQAPGQGLEWMGGIIPTFGTANYAQKFQGRVTITADESTSTAYMELSGLRSEDTAVYYCAREKRQWLEGHFDYWGRGTPVTVSSDIQMTQSPSFLSASIGDRVTITCRASEGIYHELAWYQQKPGKAPKLLIYRASSLASGAPSRFSGSGSGTDFTLTISSLQPDDFATYYCQQYSNYPLTFGGGTKLEIK,41.5,0.6,71.5,26.2,0.4,24.9,0.3
Antibody 12 scFv (scFv) QVQLQQSGAEVKKPGSSVKVSCKASGGTFSSYAISWVRQAPGQGLEWMGGIIPTFPTANYAQKFQGRVTITADESTSTAYMELSGLRSEDTAVYYCAREKRQWLEGHFDYWGRGTPVTVSSDIQMTQSPSFLSASIGDRVTITCRASEGIYHNLAWYQQKPGKAPKLLIYRASSLASGAPSRFSGSGSGTDFTLTISSLQPDDFATYYCQQYSNYPLTFGGGTKLEIK,0.6,0.3,2.3,27.8,12.2,78.2,34.4
Antibody 23 scFv (scFv) QVQLQQSGAEVKKPGSSVKVSCKASGGTFSSYAISWVRQAPGQGLEWMGGIIPTFGTANYAQKFQSRVTITADESTSTAYMELSGLRSEDTAVYYCAREKRQWLEGHFDYWGRGTPVTVSSDIQMTQSPSFLSASIGDRVTITCRASEGIYHSLAWYQQKPGKAPKLLIYRASSLASGAPSRFSGSGSGTDFTLTISSLQPDDFATYYCQQYSNYPLTFGGGTKLEIK,0.5,0.3,1.6,376,229,376,229
Antibody 18 scFv (scFv) QVQLQQSGAEVKKPGSSVKVSCKASGGTFSSYAISWVRQAPGQGLEWMGGIIPTFGTANYAQKLQGRVTITADESTSTAYMELSGLRSEDTAVYYCAREKRQWLEGHFDYWGRGTPVTVSSDIQMTQSPSFLSASIGDRVTITCRASEGIYHALAWYQQKPGKAPKLLIYRASSLASGAPSRFSGSGSGTDFTLTISSLQPDDFATYYCQQYSNYPLTFGGGTKLEIK,0.5,0.4,–,319,255,–,–
Antibody 24 scFv (scFv) QVQLQQSGAEVKKPGSSVKVSCKASGGTFSSYAISWVRQAPGQGLEWMGGIIPTFVTANYAQKFQGRVSITADESTSTAYMELSGLRSEDTAVYYCAREKRQWLEGHFDYWGRGTPVTVSSDIQMTQSPSFLSASIGDRVTITCRASEGIYHALAWYQQKPGKAPKLLIYRASSLASGAPSRFSGSGSGTDFTLTISSLQPDDFATYYCQQYSNYPLTFGGGTKLEIK,1.1,0.3,3.2,140,43.3,127,39.3
Antibody 19 scFv (scFv) QVQLQQSGAEVKKPGSSVKVSCKASGGTFSSYAISWVRQAPGQGLEWMGGIIPIFDTANYAQKFQGRVTITADESTSTAYMELSGLRSEDTAVYYCARERRQWLEGHFDYWGRGTPVTVSSDIRMTQSPSFLSASIGDRVTITCRASEGIYHELAWYQQKPGKAPKLLIYRASSLASGAPSRFSGSGSGTEFTLTISSLQPDDFATYYCQQYSNYPLTFGGGTKLEIK,10.8,0.4,26,6.4,0.2,7.9,0.3
Antibody 25 scFv (scFv) QVQLQQSGAEVKKPGSSVKVSCKASGGTFSSYAISWVRQAPGQGLEWMGGIIPTFGTANYAQKFQGRVTITADESTSTAYMELSGLRSEDTAVYYCARERRQWLEGHFDYWGQGTPVTVSSDIQMTQSPSFLSASIGDRVTITCRASESIYHELAWYQQKPGKAPKLLIYKASSLASGAPSRFSGSGSGTAFTLTISSLQPDDFATYYCQQYSNYPLTFGGGTKLEIK,4.6,0.4,13.1,172,13.1,322,24.6
Antibody 21 scFv (scFv) PVQLQQSGAEVKKPGSSVKVSCKASGGTFSSYAISWVRQAPGQGLEWMGGIIPTFGTANYAQKFQGRVTITADESTSTAYMELSGLRSEDTAVYYCAREKRQWLEGHFDYWGRGTPVTVSSDIQMAQSPSFLSASIGDRVTITCRASEGIYHNLAWYQQKPGKAPKLLIYRASSLASGAPSRFSGSGSGTDFTLTISSLQPDDFATYYCQQYSNYPLTFGGGTKLEIK,1.6,0.4,4.1,32.2,7.9,49.2,12
Antibody 13 scFv (scFv) QVQLQQSGAEVKKPGSSVKVSCKASGGTFSSYAISWVRQAPGQGLEWMGGIIPTFGTANYAQKFQGRVTITADESTSTAYMELSDLRSEDTAVYYCAREKRQWLEGHFDYWGRGTPVTVSSDIQMTQSPSFLSASIGDRVTITCRASEGIYHSLAWYQQKPGKAPKLLIYRASSLASGAPSRFSGSGSGTDFTLTISSLQPDDFATYYCQQYSNYPLTFGGGTKLEIK,1.2,0.4,2.9,247,85.8,140,48.6
Antibody 22 scFv (scFv) QVQLQQSGAEVKKPGSSVKVSCKASGGTFSGYAISWVRQAPGQGLEWMGGIIPTFGTANYSQKFQGRVTITADESTSTAYMELSGLRSEDTAVYYCAREKRQWLEGHFDYWGRGTPVTVSSDIQMTQSLSFLSASIGDRVTITCRASEGIYHALAWYQQKPGKAPKLLIYRASSLASGAPSRFSGSGSGTDFTLTISSLQPDDFATYYCQQYSNYPLTFGGGTKLEIK,1.5,0.3,5,413,82.6,406,81.2
"Antibody 02 IgG1, not germlined (antibody, V domains shown) VH: QVQLVQSGAEVKKPGSSVKVSCKASGGTFSSYAISWVRQAPGQGLEWMGGIIPTFGTANYAQKFQGRVTITADESTSTAYMELSSLRSEDTAVYYCAREKRQWLEGHFDYWGRGTLVTVSS VL: DIQMTQSPSTLSASVGDRVTITCRASEGIYHSLAWYQQKPGKAPKLLIYKASSLASGVPSRFSGSGSGTEFTLTISSLQPDDFATYYCQQYSDYPLTFGGGTKVEIK",–,–,–,–,104,–,317
"Antibody 01 IgG1, not germlined (antibody, V domains shown) VH: QVQLVQSGAEVKKPGSSVKVSCKASGGTFSSYAISWVRQAPGQGLEWMGGIIPIFGTANYAQKFQGRVTITADESTSTAYMELSSLRSEDTAVYYCAREKRQWLEGHFDYWGRGTLVTVSS VL: DIQMTQSPSTLSASVGDRVTITCRASEGIYRSLAWYQQKPGKAPKLLIYKASSLASGVPSRFSGSGSGTEFTLTISSLQPDDFATYYCQQYSNYPLTFGGGTKVEIK",–,0.4,–,–,20,–,66.2

# — patent publication US20130266566A1 (AbbVie / Abbott, published 2013)
